# Patent US20030166868A1
# How the values were obtained:
# CD20 antigen = CD20 antigen (UniProt P11836); experiment: flow cytometry on WIL2-S cells expressing CD20; EC50 as percentage of C2B8 reference; design: unit not given beside the values
# C1q (human) [1] = biological target: C1q (human) (UniProt P02745); experiment: C1q binding ELISA, antibody coated on plate, 2 ug/ml C1q, anti-C1q-HRP detection
# C1q (human) [2] = biological target: C1q (human) (UniProt P02745); experiment: cell-based or functional assay
# C1q (human) [3] = biological target: C1q (human) (UniProt P02745); experiment: C1q binding ELISA, antibody coated on plate up to 100 ug/ml, 2 ug/ml C1q
# C1q (human), sequence (P02745 23-245 limits assumed, chain 1 of 3): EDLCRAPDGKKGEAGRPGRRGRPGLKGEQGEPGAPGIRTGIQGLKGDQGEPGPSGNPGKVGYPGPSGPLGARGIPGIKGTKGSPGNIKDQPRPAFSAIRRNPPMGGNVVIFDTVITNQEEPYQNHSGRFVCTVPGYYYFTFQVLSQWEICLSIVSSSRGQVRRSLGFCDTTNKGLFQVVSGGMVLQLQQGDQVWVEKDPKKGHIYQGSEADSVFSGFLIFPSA
# C1q (human), sequence (P02746 28-253 limits assumed, chain 2 of 3, further chain): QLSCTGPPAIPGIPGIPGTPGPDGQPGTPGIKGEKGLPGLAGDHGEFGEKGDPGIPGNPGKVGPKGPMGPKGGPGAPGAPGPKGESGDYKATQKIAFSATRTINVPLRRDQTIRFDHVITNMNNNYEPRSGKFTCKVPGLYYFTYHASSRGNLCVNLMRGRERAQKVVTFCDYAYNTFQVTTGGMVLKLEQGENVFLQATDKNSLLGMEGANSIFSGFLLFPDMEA
# C1q (human), sequence (P02747 29-245 limits assumed, chain 3 of 3, further chain): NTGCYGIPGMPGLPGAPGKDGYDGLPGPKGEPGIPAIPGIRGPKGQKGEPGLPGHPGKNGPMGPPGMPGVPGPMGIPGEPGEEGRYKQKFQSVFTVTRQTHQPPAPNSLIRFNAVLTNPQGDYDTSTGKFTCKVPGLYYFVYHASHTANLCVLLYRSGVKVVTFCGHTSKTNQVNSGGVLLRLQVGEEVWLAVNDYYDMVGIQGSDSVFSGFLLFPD
# CD20 antigen, sequence (P11836 whole entry): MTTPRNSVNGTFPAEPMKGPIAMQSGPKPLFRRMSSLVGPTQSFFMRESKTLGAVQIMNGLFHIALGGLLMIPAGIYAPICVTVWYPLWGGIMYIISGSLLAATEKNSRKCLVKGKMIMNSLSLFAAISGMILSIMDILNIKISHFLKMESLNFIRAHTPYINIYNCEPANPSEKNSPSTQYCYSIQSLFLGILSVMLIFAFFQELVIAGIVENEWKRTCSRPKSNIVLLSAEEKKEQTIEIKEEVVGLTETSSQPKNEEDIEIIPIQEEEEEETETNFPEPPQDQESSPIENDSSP
Substance,EC50 as a percentage of the wild type (% of wild type) (CD20 antigen),percent decrease in binding against wild type C2B8 (C1q (human) [1]) [% decrease],CDC (percent activity as compared to wild type C2B8) (% of wild type) (C1q (human) [2]),fold lower binding than wild type C2B8 (fold lower than wild type) (C1q (human) [3])
C2B8 mutant E318A (antibody),89,30,108,
C2B8 mutant K320A (antibody),102,,108,
C2B8 mutant P329A (antibody),112,,,
C2B8 mutant P331A (antibody),103,,,60
